T1: AppA (Escherichia coli periplasmic phytase) (Escherichia coli, UniProt P07102)
T1 construct: mature enzyme lacking the periplasmic signal peptide (residues 1–22)
T1 sequence (P07102 23-432): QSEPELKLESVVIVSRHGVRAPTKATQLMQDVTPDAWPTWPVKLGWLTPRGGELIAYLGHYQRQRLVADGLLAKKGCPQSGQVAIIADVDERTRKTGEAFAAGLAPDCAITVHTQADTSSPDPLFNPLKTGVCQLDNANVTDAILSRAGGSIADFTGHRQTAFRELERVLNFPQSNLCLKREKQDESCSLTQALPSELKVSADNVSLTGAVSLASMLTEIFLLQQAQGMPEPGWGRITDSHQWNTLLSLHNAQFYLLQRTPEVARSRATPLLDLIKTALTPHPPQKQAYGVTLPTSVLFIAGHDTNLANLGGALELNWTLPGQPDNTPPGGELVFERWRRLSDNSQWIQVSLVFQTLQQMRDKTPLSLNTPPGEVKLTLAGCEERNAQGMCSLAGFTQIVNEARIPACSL

B1: AppA (Escherichia coli periplasmic phytase) (Escherichia coli K-12) (protein)
chain: QSEPELKLESVVIVSRHGVRAPTKATQLMQDVTPDAWPTWPVKLGWLTPRGGELIAYLGHYQRQRLVADGLLAKKGCPQSGQVAIIADVDERTRKTGEAFAAGLAPDCAITVHTQADTSSPDPLFNPLKTGVCQLDNANVTDAILSRAGGSIADFTGHRQTAFRELERVLNFPQSNLCLKREKQDESCSLTQALPSELKVSADNVSLTGAVSLASMLTEIFLLQQAQGMPEPGWGRITDSHQWNTLLSLHNAQFYLLQRTPEVARSRATPLLDLIKTALTPHPPQKQAYGVTLPTSVLFIAGHDTNLANLGGALELNWTLPGQPDNTPPGGELVFERWRRLSDNSQWIQVSLVFQTLQQMRDKTPLSLNTPPGEVKLTLAGCEERNAQGMCSLAGFTQIVNEARIPACSL
notes: mature enzyme lacking the periplasmic signal peptide (residues 1–22)
B2: AppA-HDE (Escherichia coli K-12; T327E) (protein)
chain: QSEPELKLESVVIVSRHGVRAPTKATQLMQDVTPDAWPTWPVKLGWLTPRGGELIAYLGHYQRQRLVADGLLAKKGCPQSGQVAIIADVDERTRKTGEAFAAGLAPDCAITVHTQADTSSPDPLFNPLKTGVCQLDNANVTDAILSRAGGSIADFTGHRQTAFRELERVLNFPQSNLCLKREKQDESCSLTQALPSELKVSADNVSLTGAVSLASMLTEIFLLQQAQGMPEPGWGRITDSHQWNTLLSLHNAQFYLLQRTPEVARSRATPLLDLIKTALTPHPPQKQAYGVTLPTSVLFIAGHDENLANLGGALELNWTLPGQPDNTPPGGELVFERWRRLSDNSQWIQVSLVFQTLQQMRDKTPLSLNTPPGEVKLTLAGCEERNAQGMCSLAGFTQIVNEARIPACSL
notes: as for B1
B3: AppA-HAE (Escherichia coli K-12; D326A/T327E) (protein)
chain: QSEPELKLESVVIVSRHGVRAPTKATQLMQDVTPDAWPTWPVKLGWLTPRGGELIAYLGHYQRQRLVADGLLAKKGCPQSGQVAIIADVDERTRKTGEAFAAGLAPDCAITVHTQADTSSPDPLFNPLKTGVCQLDNANVTDAILSRAGGSIADFTGHRQTAFRELERVLNFPQSNLCLKREKQDESCSLTQALPSELKVSADNVSLTGAVSLASMLTEIFLLQQAQGMPEPGWGRITDSHQWNTLLSLHNAQFYLLQRTPEVARSRATPLLDLIKTALTPHPPQKQAYGVTLPTSVLFIAGHAENLANLGGALELNWTLPGQPDNTPPGGELVFERWRRLSDNSQWIQVSLVFQTLQQMRDKTPLSLNTPPGEVKLTLAGCEERNAQGMCSLAGFTQIVNEARIPACSL
notes: as for B1
B4: AppA-HAT (Escherichia coli K-12; D326A) (protein)
chain: QSEPELKLESVVIVSRHGVRAPTKATQLMQDVTPDAWPTWPVKLGWLTPRGGELIAYLGHYQRQRLVADGLLAKKGCPQSGQVAIIADVDERTRKTGEAFAAGLAPDCAITVHTQADTSSPDPLFNPLKTGVCQLDNANVTDAILSRAGGSIADFTGHRQTAFRELERVLNFPQSNLCLKREKQDESCSLTQALPSELKVSADNVSLTGAVSLASMLTEIFLLQQAQGMPEPGWGRITDSHQWNTLLSLHNAQFYLLQRTPEVARSRATPLLDLIKTALTPHPPQKQAYGVTLPTSVLFIAGHATNLANLGGALELNWTLPGQPDNTPPGGELVFERWRRLSDNSQWIQVSLVFQTLQQMRDKTPLSLNTPPGEVKLTLAGCEERNAQGMCSLAGFTQIVNEARIPACSL
notes: as for B1
B5: AppA-HET (Escherichia coli K-12; D326E) (protein)
chain: QSEPELKLESVVIVSRHGVRAPTKATQLMQDVTPDAWPTWPVKLGWLTPRGGELIAYLGHYQRQRLVADGLLAKKGCPQSGQVAIIADVDERTRKTGEAFAAGLAPDCAITVHTQADTSSPDPLFNPLKTGVCQLDNANVTDAILSRAGGSIADFTGHRQTAFRELERVLNFPQSNLCLKREKQDESCSLTQALPSELKVSADNVSLTGAVSLASMLTEIFLLQQAQGMPEPGWGRITDSHQWNTLLSLHNAQFYLLQRTPEVARSRATPLLDLIKTALTPHPPQKQAYGVTLPTSVLFIAGHETNLANLGGALELNWTLPGQPDNTPPGGELVFERWRRLSDNSQWIQVSLVFQTLQQMRDKTPLSLNTPPGEVKLTLAGCEERNAQGMCSLAGFTQIVNEARIPACSL
notes: as for B1

Columns and labels:
[1] = molecular target: T1, AppA (Escherichia coli periplasmic phytase); test: X-ray crystal structure at […] Å (soak at pH […]); phytase inhibition assay at pH […]; format: biochemical
[2] = substrate: O=P(O)(O)O[C@H]1[C@H](OP(=O)(O)O)[C@@H](OP(=O)(O)O)[C@H](OP(=O)(O)O)[C@@H](OP(=O)(O)O)[C@H]1OP(=O)(O)O; test: phosphate release kinetics (Km), HPLC of products; format: biochemical, Escherichia coli; conditions: active site
[3] = preferential hydrolysis of the 1D-6-phosphate
[4] = predominantly 1D-1/3-phytase activity

Row | Molecule | Km [2] [µM] | kcat [2] [s⁻¹] | kcat/Km [2] [M⁻¹ s⁻¹] | also measured
1 | O=S(=O)(O)O[C@H]1[C@H](OS(=O)(=O)O)[C@@H](OS(=O)(=O)O)[C@H](OS(=O)(=O)O)[C@@H](OS(=O)(=O)O)[C@H]1OS(=O)(=O)O [InsS6] | – | – | – | IC50 [1]: ~10 µM
2 | B1 | – | – | – | Km [2, 3]: 161 µM; kcat [2, 3]: 10200 s⁻¹; kcat/Km [2, 3]: 6.4e+07 M⁻¹ s⁻¹
3 | B2 | 92 | 1690 | 1.8e+07 | –
4 | B3 | 33 | 12.5 | 380000 | –
5 | B4 | – | – | – | Km [2, 4]: 32 µM; kcat [2, 4]: 10.5 s⁻¹; kcat/Km [2, 4]: 320000 M⁻¹ s⁻¹
6 | B5 | 171 | 128 | 700000 | –
